Source: paper PMC5658023 (Current biology : CB, 2017)
Read-outs that look alike come from different tables or passages of the source.

B4: MBP-Chs4-SLR (220-610) (domain or fragment, S. cerevisiae, UniProt P34226 220-610, looked up)
chain: QYMLQTALTIESSNALVQDSDKEGNVSQSDLKLQFLKEAQSYLKKLSIKGYSDAQYLLADGYSSGAFGKIENKEAFVLFQAAAKHGHIESAYRASHCLEEGLGTTRDSRKSVNFLKFAASRNHPSAMYKLGLYSFYGRMGLPTDVNTKLNGVKWLSRAAARANELTAAAPYELAKIYHEGFLDVVIPDEKYAMELYIQAASLGHVPSATLLAQIYETGNDTVGQDTSLSVHYYTQAALKGDSVAMLGLCAWYLLGAEPAFEKDENEAFQWALRAANAGLPKAQFTLGYFYEHGKGCDRNMEYAWKWYEKAAGNEDKRAINKLRSRDGGLASIGKKQHKKNKSISTLNLFSTVDSQTSNVGSNSRVSSKSETFFTGNPKRDREPQGLQINMN

What was measured:
Assay in all cases: pull-down
MBP-Chs4-SLR (220-610) = biological target: B4
GST-Chs4-SLR (220-610) [1] = biological target: T1, GST-Chs4-SLR (220-610) (S. cerevisiae, UniProt P34226 220-610)
T1 sequence (looked up): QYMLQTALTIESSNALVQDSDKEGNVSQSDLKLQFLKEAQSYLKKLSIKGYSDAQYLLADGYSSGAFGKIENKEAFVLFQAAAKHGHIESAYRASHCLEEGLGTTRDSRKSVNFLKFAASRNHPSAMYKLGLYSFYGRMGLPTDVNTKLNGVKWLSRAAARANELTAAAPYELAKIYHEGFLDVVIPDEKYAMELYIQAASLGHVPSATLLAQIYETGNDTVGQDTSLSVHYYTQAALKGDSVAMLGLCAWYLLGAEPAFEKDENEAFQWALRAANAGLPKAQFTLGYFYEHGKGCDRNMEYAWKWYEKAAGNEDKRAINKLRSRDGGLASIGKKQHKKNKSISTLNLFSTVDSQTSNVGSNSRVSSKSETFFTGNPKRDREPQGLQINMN

GST-Chs4-SLR (220-610) [2] = biological target: T1, GST-Chs4-SLR (220-610); remark: listed apart in the source
His6-Chs3-MID (477-1028) = biological target: T2, His6-Chs3-MID (477-1028) (S. cerevisiae, UniProt P29465 477-1028)
T2 sequence (looked up): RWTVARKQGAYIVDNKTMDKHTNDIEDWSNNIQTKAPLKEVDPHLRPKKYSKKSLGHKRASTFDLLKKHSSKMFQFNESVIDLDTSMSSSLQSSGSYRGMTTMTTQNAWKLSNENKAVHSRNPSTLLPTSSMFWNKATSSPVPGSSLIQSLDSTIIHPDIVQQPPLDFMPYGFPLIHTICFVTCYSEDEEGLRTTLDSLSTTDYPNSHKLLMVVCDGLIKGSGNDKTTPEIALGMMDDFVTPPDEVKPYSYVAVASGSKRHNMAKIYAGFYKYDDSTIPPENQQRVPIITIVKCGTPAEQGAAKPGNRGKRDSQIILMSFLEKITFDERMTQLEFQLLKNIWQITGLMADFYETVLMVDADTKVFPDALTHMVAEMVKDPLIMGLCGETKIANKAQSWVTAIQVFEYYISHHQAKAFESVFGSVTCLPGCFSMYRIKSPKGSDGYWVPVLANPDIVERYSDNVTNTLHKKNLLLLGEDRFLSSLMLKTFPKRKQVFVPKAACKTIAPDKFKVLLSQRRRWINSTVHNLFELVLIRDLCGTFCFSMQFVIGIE

B1: His6-Hof1-N-term (domain or fragment, S. cerevisiae, UniProt Q05080 1-340, looked up)
chain: MSYSYEACFWDPNDNGVNILLGHISQGIRSCDSMILFFKQRSELEKDYARRLGAITGKLDKDIGTNMDYGKLNETFNVVLSVEKARAQSHSKQSEILFRQIYTDTKAFAANLQARYTTLSGKIERLRMDKFNKKKGCEVLQKKLQDAQIRFRDLQLNENNMIGAKRVEHNKRELLKWESNSQEYKVQLDVLKQEYKASQKFWIHEWAQLSCELQEMENARISFLQSKLQQFATSSMETYILEQTKMDMLTNHLNSFTAADEISTFSKENGTGRLKHKTSKGDMNSSANWAQMSSISTTSKKTESYMDNIRKLSSQLKETENKRKLASIDKYEKPLPSPEV
binding result (MBP-Chs4-SLR (220-610)): binds
binding result (GST-Chs4-SLR (220-610) [1]): binds

B2: MBP-Hof1-F-BAR (1-275) (domain or fragment, S. cerevisiae, UniProt Q05080 1-275, looked up)
chain: MSYSYEACFWDPNDNGVNILLGHISQGIRSCDSMILFFKQRSELEKDYARRLGAITGKLDKDIGTNMDYGKLNETFNVVLSVEKARAQSHSKQSEILFRQIYTDTKAFAANLQARYTTLSGKIERLRMDKFNKKKGCEVLQKKLQDAQIRFRDLQLNENNMIGAKRVEHNKRELLKWESNSQEYKVQLDVLKQEYKASQKFWIHEWAQLSCELQEMENARISFLQSKLQQFATSSMETYILEQTKMDMLTNHLNSFTAADEISTFSKENGTGRLK
binding result (GST-Chs4-SLR (220-610) [2]): binds

B3: MBP-Hof1-N-term (1-340) (domain or fragment, S. cerevisiae, UniProt Q05080 1-340, looked up)
chain: MSYSYEACFWDPNDNGVNILLGHISQGIRSCDSMILFFKQRSELEKDYARRLGAITGKLDKDIGTNMDYGKLNETFNVVLSVEKARAQSHSKQSEILFRQIYTDTKAFAANLQARYTTLSGKIERLRMDKFNKKKGCEVLQKKLQDAQIRFRDLQLNENNMIGAKRVEHNKRELLKWESNSQEYKVQLDVLKQEYKASQKFWIHEWAQLSCELQEMENARISFLQSKLQQFATSSMETYILEQTKMDMLTNHLNSFTAADEISTFSKENGTGRLKHKTSKGDMNSSANWAQMSSISTTSKKTESYMDNIRKLSSQLKETENKRKLASIDKYEKPLPSPEV
binding result (GST-Chs4-SLR (220-610) [2]): binds

B4
binding result (His6-Chs3-MID (477-1028)): binds
